First the molecules themselves.
B1: inducible lysine decarboxylase LdcI (enzyme, Escherichia coli)
chain: MNVIAILNHMGVYFKEEPIRELHRALERLNFQIVYPNDRDDLLKLIENNARLCGVIFDWDKYNLELCEEISKMNENLPLYAFANTYSTLDVSLNDLRLQISFFEYALGAAEDIANKIKQTTDEYINTILPPLTKALFKYVREGKYTFCTPGHMGGTAFQKSPVGSLFYDFFGPNTMKSDISISVSELGSLLDHSGPHKEAEQYIARVFNADRSYMVTNGTSTANKIVGMYSAPAGSTILIDRNCHKSLTHLMMMSDVTPIYFRPTRNAYGILGGIPQSEFQHATIAKRVKETPNATWPVHAVITNSTYDGLLYNTDFIKKTLDVKSIHFDSAWVPYTNFSPIYEGKCGMSGGRVEGKVIYETQSTHKLLAAFSQASMIHVKGDVNEETFNEAYMMHTTTSPHYGIVASTETAAAMMKGNAGKRLINGSIERAIKFRKEIKRLRTESDGWFFDVWQPDHIDTTECWPLRSDSTWHGFKNIDNEHMYLDPIKVTLLTPGMEKDGTMSDFGIPASIVAKYLDEHGIVVEKTGPYNLLFLFSIGIDKTKALSLLRALTDFKRAFDLNLRVKNMLPSLYREDPEFYENMRIQELAQNIHKLIVHHNLPDLMYRAFEVLPTMVMTPYAAFQKELHGMTEEVYLDEMVGRINANMILPYPPGVPLVMPGEMITEESRPVLEFLQMLCEIGAHYPGFETDIHGAYRQADGRYTVKVLKEESKK
notes: Inducible lysine decarboxylase LdcI of Escherichia coli; decamer of two pentameric rings; crystal structure pdb 3N75; also called acid stress-inducible lysine decarboxylase; source: E. coli CF1693 bearing pT7-322-Tetr, from pET22b, purified (Ni-NTA, MonoQ, Superdex S200); not shown: 24 amino acid linker containing 6xHis-tag, C-terminal, kept; copies: 10

Data set [1] concerns the molecule itself. Description: cryo-EM structure; LdcI-LARA complex, 7.5 Å; 7.3 µM LdcI with 73 µM LARA (1:10), 15 min at room temperature, 50 mM Mes pH 6.5, 100 mM NaCl, 0.2 mM PLP, 1 mM DTT, 0.01% glutaraldehyde; D5 symmetry imposed.
Data set [2] deals with the molecule itself. The data set can be described thus: cryo-EM structure; LdcI–RavA complex, 11 Å; 1.26 mg/ml LdcI mixed with 0.94 mg/ml RavA, 15 min at room temperature, 25 mM Mes pH 6.5, 200 mM NaCl, 3 mM ADP, 0.8 mM PLP, 1 mM DTT; no cross-linking; D5 symmetry imposed.
Data set [3] has as its target B1. The description is as above. The note with it: both partners purified.

As a reminder, the stoichiometry N is the number of molecules, sites or subunits per partner or assembly. As to B1, the “stoichiometry N” value in data set [1] amounted to 10.

B2: AAA+ ATPase RavA (enzyme)
chain: not shown
notes: RavA of Escherichia coli, MoxR family AAA+ ATPase; crystal structure pdb 3NBX; The purification is told for the RavA mutants ('as previously described', El Bakkouri et al., 2010); also called MoxR AAA+ ATPase RavA; source: E. coli BL21-(DE3) Gold pLysS, from p11 plasmid, purified (Ni-NTA, TEV, MonoS, Superdex S200); not shown: 6xHis-tag, N-terminal, cleaved
In the case of B2, the “stoichiometry N” value was 6 in data set [2] and 1.5 RavA monomers per LdcI monomer in data set [3].
